This is an account of results in patent publication US20140322196A1 (priority 2011, published 2014).

The subject of data set [1] is HA and NA surface antigens of Solomon (H1N1) and Wisconsin (H3N2) subunit vaccines. The class given is binding, Influenza A virus.
Data set [2] relates to A/Solomon (3/06) inactivated subunits, vaccine H1N1. Format: cell-based, Influenza A virus.
Data set [3] has as its system A/Turkey/Italy/2676/99 H7N1. The class given is cell-based, Influenza A virus.
The subject of data set [4] is A/Wisconsin (67/05) inactivated subunits, vaccine H3N2. The class given is cell-based, Influenza A virus.
For data set [5], the system named is Influenza virus A/RomaISS/2/08. Format: binding.
A further data set has as its system A/PR/8/34 H1N1. The class given is cell-based, Influenza A virus.
Data set [6] has as its system SW X-179A 1089/09 inactivated subunits, vaccine H1N1. Format: cell-based, Influenza A virus.
The subject of data set [7] is all tested virus strains (Influenza A H1N1, H3N2, H5N1, H7N1).
For data set [8], the system named is A/Parma/5/06 (Wisconsin-like) H3N2. Format: cell-based, Influenza A virus.
For data set [9], the system named is Influenza A/H1N1 (A/Roma-ISS/2/08 and A/Parma/24/09) and A/H3N2 (A/Parma/05/06). Format: cell-based, Influenza A virus.
The subject of data set [10] is A/Roma-ISS/2/08 (Brisbane-like) (oseltamivir-sensitive) H1N1. The class given is cell-based, Influenza A virus.
For data set [11], the system named is Avian 29/05/06 inactivated vaccine H5N1. Format: cell-based, Influenza A virus. The settings on record: Avian 29/05/06 H5N1 inactivated vaccine.

Read-outs that look alike come from different tables or passages of the source.

B1: bLf: Lactoferrin from bovine milk, purchased from Morinaga Milk Industries, deprived of endotoxin (protein, UniProt P24627 20-708, looked up)
Lactotransferrin: APRKNVRWCTISQPEWFKCRRWQWRMKKLGAPSITCVRRAFALECIRAIAEKKADAVTLDGGMVFEAGRDPYKLRPVAAEIYGTKESPQTHYYAVAVVKKGSNFQLDQLQGRKSCHTGLGRSAGWIIPMGILRPYLSWTESLEPLQGAVAKFFSASCVPCIDRQAYPNLCQLCKGEGENQCACSSREPYFGYSGAFKCLQDGAGDVAFVKETTVFENLPEKADRDQYELLCLNNSRAPVDAFKECHLAQVPSHAVVARSVDGKEDLIWKLLSKAQEKFGKNKSRSFQLFGSPPGQRDLLFKDSALGFLRIPSKVDSALYLGSRYLTTLKNLRETAEEVKARYTRVVWCAVGPEEQKKCQQWSQQSGQNVTCATASTTDDCIVLVLKGEADALNLDGGYIYTAGKCGLVPVLAENRKSSKHSSLDCVLRPTEGYLAVAVVKKANEGLTWNSLKDKKSCHTAVDRTAGWNIPMGLIVNQTGSCAFDEFFSQSCAPGADPKSRLCALCAGDDQGLDKCVPNSKEKYYGYTGAFRCLAEDVGDVAFVKNDTVWENTNGESTADWAKNLNREDFRLLCLDGTRKPVTEAQSCHLAVAPNHAVVSRSDRAAHVKQVLLHQQALFGKNGKNCPDKFCLFKSETKNLLFNDNTECLAKLGGRPTYEEYLGTEYVTAIANLKKCSTSPLLEACAFLTR
For B1, the “bLf binding to viral envelope proteins (in words)” value in data set [1] is “binds to a viral protein of apparent molecular mass of 28 kDa”. Moreover, the HI titre is 5 pM in [2]; 93.1 fM in data set [3]; 0.3 pM in [4]; 3 nM with A/PR/8/34 H1N1; 46.5 fM in data set [6]; 3 nM in [8]. Moreover, the values for the HI titre in data set [10] and in data set [11] were 6 nM and 2.9 pM, respectively. The “virus binding to bLf” value is reported as 47.2+/−1.4% in data set [5] (pH 4), 52.9+/−9.7% in data set [5] (pH 5) and 34.1+/−4.1% in [5] (pH 6). The “substance-induced agglutination or erythrocyte lysis” value in data set [7] (turkey red blood cells, in the hemagglutination assays) is “Neither bLf-induced agglutination nor visual evidence of erythrocyte lysis was observed”. Further, the “effect on virus replication / infection (in words)” value in data set [9] was “markedly inhibited”.

B2: C-lobe: bovine lactoferrin C-lobe as named in the text, without saying which of the two fragments of Table 2 (protein)
chain: YTRVVWCAVGPEEQKKCQQWSQQSGQNVTCATASTTDDCIVLVLKGEADALNLDGGYIYTAGKCGLVPVLAENRKSSKHSSLDCVLRPTEGYLAVAVVKKANEGLTWNSLKDKKSCHTAVDRTAGWNIPMGLIVNQTGSCAFDEFFSQSCAPGADPKSRLCALCAGDDQGLDKCVPNSKEKYYGYTGAFRCLAEDVGDVAFVKNDTVWENTNGESTADWAKNLNREDFRLLCLDGTRKPVTEAQSCHLAVAPNHAVVSRSDRAAHVKQVLLHQQALFGKNGKNCPDKFCLFKSETKNLLFNDNTECLAKLGGRPTYEEYLGTEYVTAIANLKKCSTSPLLEACAFLTR
modifications: bovine lactoferrin C-lobe peptide
Consider B2, for which the “inhibition of viral hemagglutination (in words)” value in [7] is reported as “marked inhibition of viral hemagglutination”. The “effect on virus replication / infection (in words)” value in data set [9] is “highly inhibited”.
